This is an account of results in patent publication US7811569.

The target in assay [1] is native MSP-3 antigen of Plasmodium falciparum clone 3D7 schizonts and merozoites (Plasmodium falciparum). Kind of assay: cell-based or functional assay.
Assay [2] has the same target. The assay is described as follows: indirect immunofluorescence on 3D7 mature schizont infected RBCs; antibody at 3 µg/ml in ADCI.
The target is the same in assay [3]. Kind of assay: indirect immunofluorescence on 3D7 mature schizont infected RBCs; antibody at 15 µg/ml in ADCI.

B1: RAM1 IgG3 (antibody, V domains shown)
VH: QVQLVQSGGGVVQPGRSLRLSCAASGFTFSSYAMHWVRQAPGKGLEWVAVISYDGSNKYYADSVKGRFTISRDNSKNTLYLQMSSLRAEDTAVYYCVKGASSWSTGTLVTVSS
VL: DIVMMQSPATLSASVGDRVTITCRASQSISSWLAWYQQKPGKAPNLLIYKASSLESGVPSRFSGSGSGTEFTLTISSLQPDDFATYYCQQYKSFPYTFGQGTRLEIKR
In the case of B1, in assay [1], the SGI % (specific growth inhibitory index, ADCI with monocytes, 3 µg/ml) is 23% and the SGI % (specific growth inhibitory index, ADCI with monocytes, 15 µg/ml) was 49%. Besides, the IFAT in ADCI (endpoint titre of indirect immunofluorescence) in assay [2] was found to be 10 titre. In assay [3], this molecule showed an IFAT in ADCI (endpoint titre of indirect immunofluorescence) of 50 titre.
